These results are taken from article PMC4370617, “Development of a Molecularly Evolved, Highly Sensitive CaMKII FRET Sensor with Improved Expression Pattern” (PLoS ONE, 2015).

The series deals with the molecule itself. Description: native gel or EMSA; His-tagged association domains purified from HeLa cells, incubated in 25 mM HEPES pH 7.3, 50 mM KCl, 1 mM DTT for 1 hour at 37°C; native-PAGE, silver staining.

B1: His-tagged association domain of CaMKIIα, wild type (domain or fragment, rat, UniProt P11275 345-478, looked up)
chain: VRKQEIIKVTEQLIEAISNGDFESYTKMCDPGMTAFEPEALGNLVEGLDFHRFYFENLWSRNSKPVHTTILNPHIHLMGDESACIAYIRITQYLDAGGIPRTAQSEETRVWHRRDGKWQIVHFHRSGAPSVLPH
notes: association domain of CaMKIIα, rat, 345-end; Printed molecular weight of the His-tagged domain: 19,800; The limits 345-end are stated for the library fragment; they are not restated for the HeLa expression construct; also called AD WT; source: HeLa, transfected, purified (Ni-Sepharose)
B1: the binding result was “binds”.
